Biological target: the molecule itself
Experiment: cross-linking; in vitro cross-linking of purified NadR, cross-linked species resolved on SDS-PAGE; data not shown

B1: NadR transcriptional regulator protein (NMB1843) of Neisseria meningitidis MC58, recombinant with an N-terminal histidine tag (natural protein)
chain: MPTQSKHASINIGLIQAREALMTQFRPILNQANITDQQWRIIRLLAENGTLDFQDLANQACILRPSLTGILTRLEKAGLVVRLKPSNDQRRVFLKLTAEGEKLYEEIGEEVDERYDAIEEVLGREKMLLLKDLLAELAKIEDALNS
notes: NadR (NMB1843), MarR family transcriptional regulator, N. meningitidis MC58; gene amplified from the MC58 genome with primers 1843-F (at the ATG) and 1843-R (past the stop codon), cloned as a 448 bp NdeI-BamHI fragment into pET15b; also called 1843 protein
stoichiometry N: 2

Reference: article PMC2791445, “A Novel Phase Variation Mechanism in the Meningococcus Driven by a Ligand-Responsive Repressor and Differential Spacing of Distal Promoter Elements” (PLoS Pathogens, 2009)
